From patent US7312323B2, “Enzymes and polynucleotides encoding the same” (The Horticulture and Food Research Institute of New Zealand …, priority 2002, dated 2007)

Molecular target: Germacrene D synthase (Actinidia deliciosa, UniProt Q32W37)
Assay: Kinetic studies with 3H-FDP, pentane overlay scintillation assay
Format: biochemical
Conditions: for effect of added ions on activity: 50 mM KCl or NaCl
Method: Optimisation of large-scale production of protein and protein kinetics: E. coli BL21-PlusTM-RIL cells harbouring pET-30a75565 were grown overnight at 37° C. in Lauria-Bertani media supplemented with 30 μg ml^-1 kanamycin and 34 μg ml chloramphenicol^-1. 5 mL aliquots of overnight culture were used to inoculate 4×300 mL of fresh 2× YT medium supplemented with 30 μg ml^-1 […] 34 μg ml^-1 chloramphenicol in 1 L baffled flasks. Cultures were grown at 37° C. with vigorous agitation to A600=0.8, then removed to 4° C. to equilibrate to 16° C. before induction with 0.3 mM IPTG. Induced cultures were then incubated at 16° C. and 220 rpm for a further 72 hours. Cells were pelleted by centrifugation (2500×g; 10 min) and stored overnight at -20° C. The following day cell pellets were resuspended in 20 mL His6 binding buffer and cells were disrupted by 2 passes through an EmulsiFlex®-C15 high-pressure homogeniser (Avestin) with a pressure setting between 15000-20000 psi. Cell debris was pelleted by centrifugation 2× at 10000×g for 15 min; 4° C. (Sorval SS34 rotor). […] Filtered extract was desalted and passed over a Nickel affinity column. Concentration of the recombinant synthase in the purified protein extracts was estimated from SDS-PAGE gels by comparing against a BenchMarkTM Protein Ladder (Invitrogen). Purified extracts were adjusted to a workable concentration with His6 elution buffer (without Imidazole) containing 10% glycerol and 1 mM DTT. The extract was then separated into 100 μl aliquots and stored at -80° C. until required. […] Kinetic Studies: […] Tritiated FDP was added variously depending on the experiment. One mL assays containing 100-150 ng of the recombinant synthase were overlaid with 0.6 mL pentane and incubated in 1.5 mL microfuge tubes for 2 hours at 30° C. and 150 rpm. All assays were performed in triplicate. Following incubation assays were immediately placed on ice and a 200 μL aliquot of the pentane layer removed for analysis. The aliquots were added to 1.5 mL microfuge tubes containing 0.7 mL Organic Counting Scintillant (OCS) (Amersham) and vortexed briefly. Scintillation analysis was performed using a Wallac 1409 Liquid Scintillation Counter (^3H efficiency≈70%). […] The effect on enzyme activity of metal co-factors with and without salts was also tested. Mg^2+ and Mn^2+ were added in the presence and absence of 50 mM KCL and 50 mM NaCl in all possible combinations. Controls included incubation without enzyme, with enzyme but without metal ion cofactors and with enzyme and cofactors in the presence of 10 mM EDTA. A further control comprising His6 purified pET-30a extract was also assayed to determine potential utilisation of FDP by co-purifying bacterial proteins. […] Kinetic constants were determined from the DPM data by nonlinear regression using the Origin50 graphics package.

Molecule: CC(C)=CCC/C(C)=C/CC/C(C)=C/CO[P@@](=O)(O)OP(=O)(O)O (stereo in doubt) [FDP, farnesyl diphosphate]
- Km (saturating Mg2+, pH 7.5, 30 °C): 1 to 2 µM

Molecule: [K+] [K^+]
- effect of added ions on activity: little or no effect

Molecule: [Na+] [Na^+]
- effect of added ions on activity: little or no effect

B1: Germacrene D synthase: recombinant His6-tagged sesquiterpene synthase from Actinidia deliciosa petals, SEQ ID NO:2 (protein, listed as Actinidia deliciosa)
chain: MQLPCAQALPIPTVTTTTSIEPPHVTRRSANYHPSIWGDHFLAYSSDAMEEEVINMEQQQRLHHLKQKVRKMLEAAAEQSSQMLNLVDKIQRLGVSYHFETEIETALRHIYKTCDYHFDDLHTAALSFRLLRQQGYPVSCDMFDKFKNSKGEFQESIISDVQGMLSLYEATCLRIHGEDILDEALAFTITQLRSALPNLSTPFKEQIIHALNQPIHKGLTRLNARSHILFFEQNDCHSKDLLNFAKLDFNLLQKLHQRELCEITRWWKDLNFAKTLPFARDRMVECYFWILGVYFEPQYLLARRMLTKVIAMISIIDDIYDVYGTLEELVLFTDAIERWEISALDQLPEYMKLCYQALLDVYSMIDEEMAKQGRSYCVDYAKSSMKILVRAYFEEAKWFHQGYVPTMEEYMQVALVTAGYKMLATSSFVGMGDLATKEAFDWVSNDPLIVQAASVIGRLKDDIVGHKFEQKRGHVASAVECYSKQHGTTEEEAIIELDKQVTHSWKDINAECLCPIKVPMPLLARVLNLARVLYVIYQDEDGYTHPGTKVENFVTSVLIDSMPIN
modifications: His6 tag
- decrease in enzyme activity (0.5 pH units lower than 7.5): 47%
- decrease in enzyme activity (1 pH unit higher than 7.5): 59%
- activity relative to optimal temperature activity (16 °C): ~56%
- activity at high temperature (50 °C): Little or no activity
- Vrel in the absence of DTT (optimal conditions, without DTT): ~53%
- temperature of maximum synthase activity (range 16-50 °C, 10 mM MgCl2, 10 μM FDP): 30 °C
- pH optimum (tri-buffer system pH 5.7-9.5, 10 mM MgCl2, 10 μM FDP): 7.5
